One data set relates to YY1 (SILAC extract). The data set can be described thus: pull-down, SILAC MS.
For a further data set, the target named is GST-tagged YY1(Δ231-290) (UniProt P25490). The data set can be described thus: SEC. In general terms: Size exclusion chromatography separates by hydrodynamic size, large species first.
The target of data set [1] is T1, YY1 (Homo sapiens, UniProt P25490 1-414). The data set can be described thus: fluorescence anisotropy. (Polarisation of emitted light reports the rotation of a fluorescent probe.)
The target in data set [2] is T1, YY1. The data set can be described thus: fluorescence anisotropy. This is another data set of the same source.
Data set [3] deals with T2, YY1 del231-290 (Homo sapiens, UniProt P25490 1-414, del231-290). The data set can be described thus: fluorescence anisotropy.
The target of data set [4] is T1, YY1. The experiment in a line: fluorescence anisotropy. The source holds these as a separate data set.
Data set [5] deals with T2, YY1 del231-290. The experiment in a line: fluorescence anisotropy. The source holds these as a separate data set.
The target in data set [6] is T1, YY1. The experiment in a line: fluorescence anisotropy. This is another data set of the same source.
The target in another data set is GST-YY1 (Homo sapiens, UniProt P25490 1-414). The data set can be described thus: fluorescence anisotropy.

Read-outs that look alike come from different tables or passages of the source.

With hTEL G4 biotin probe, the binding signal (SILAC ratio G4/M4) in the data set with YY1 (SILAC extract) is 2.02. What is called stoichiometry N is a count of units in the complex or per binding partner. The molecule “GST-tagged YY1(Δ231-290) (from UniProt P25490 1-414)” gave a stoichiometry N with GST-tagged YY1(Δ231-290) of 2. On to cKIT G4 biotin probe, for which, in the data set with YY1 (SILAC extract), the binding signal (SILAC ratio G4/M4) came out at 1.92.

As for cMYC G4 biotin probe, in the data set with YY1 (SILAC extract), the binding signal (SILAC ratio G4/M4) stood at 1.77.

The term Kd denotes the free concentration of one partner at which half of the binding sites on the other are occupied at equilibrium, for simple one-to-one binding. The low end stands for tighter binding, the high end for weaker binding. In the data set with YY1 [1], AGGGAGGGCGCTGGGAGGAGGG (structured_DNA) [cKIT G4] yielded a Kd of 26.7 ± 2.2 nM. Turning to AAAGGGTTAGTGTTAGTGTTAGGGAA (ssDNA) [hTEL M4], in the data set with YY1 [2], the binding signal was > 10 fold lower affinity than hTEL G4. In the data set with YY1 [1], TGAGGGTGGGGAGGGTGGGGA (structured_DNA) [cMYC G4] returned a Kd of 26.3 ± 2.1 nM. Besides, in the data set with YY1 del231-290 [3], the binding result was “binds”. On to AGGGAGGGCTCTGTGAGGAGGG (ssDNA) [cKIT M4], for which the binding signal with YY1 [4] is > 10 fold lower affinity than cKIT G4.

For the molecule TGAGGGTGAGGAGTGTGGGGA (ssDNA) [cMYC M4], the binding signal with YY1 del231-290 [5] was ~10 fold lower affinity than cMYC G4; with YY1 [6], > 10 fold lower affinity than cMYC G4.

B1: YY1 consensus motif duplex (dsDNA)
DNA 1: TCCACGGCAGCCGCCATCTTGGCT
DNA 2: AGCCAAGATGGCGGCTGCCGTGGA
Molecule B1 showed a Kd in the data set with GST-YY1 of 11.6 ± 0.8 nM. Turning to AAAGGGTTAGGGTTAGGGTTAGGGAA (structured_DNA) [hTEL G4], the Kd with YY1 [1] was 82 ± 5.3 nM.
